According to patent US20230227537A1 (VIB VZW, published 2023):

Columns and labels:
[1] = target: T1, 2019-nCoV RBD (purified recombinant) (SARS-CoV-2, UniProt P0DTC2 330-518)
SARS-CoV RBD [2] = target: T2, SARS-CoV RBD (SARS-CoV-1, UniProt P59594 320-502)
[3] = target: SARS-CoV-1 spike, full length, on cells or on pseudotyped virus (SARS-CoV-1, UniProt P59594 14-1255); test: cell-based or functional assay
[4] = target: T3, SARS-CoV NTD (N-terminal domain) (SARS-CoV-1, UniProt P59594 14-276); test: ELISA, coated antigen
T3 sequence: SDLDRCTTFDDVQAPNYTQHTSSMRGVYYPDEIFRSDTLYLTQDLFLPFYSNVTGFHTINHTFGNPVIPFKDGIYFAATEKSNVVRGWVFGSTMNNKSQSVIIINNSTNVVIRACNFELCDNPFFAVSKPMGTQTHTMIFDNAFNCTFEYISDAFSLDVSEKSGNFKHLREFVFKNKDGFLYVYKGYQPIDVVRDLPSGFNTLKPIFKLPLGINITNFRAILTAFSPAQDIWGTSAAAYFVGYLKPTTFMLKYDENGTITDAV

[5] = target: SARS-CoV-2 RBD protein Avi-tag biotinylated (AcroBiosystems SPD-C82E9) (SARS-CoV-2, UniProt P0DTC2 330-518); test: competition AlphaLISA; competitor human ACE2-mFc; on % inhibition: test concentration or dose not given here
[6] = target: T1, 2019-nCoV RBD (purified recombinant); test: SPR, His-tagged VHH on NTA chip, RBD as analyte
SARS-CoV RBD [7] = target: T2, SARS-CoV RBD; test: SPR, His-tagged VHH on NTA chip, RBD as analyte

B1: SARS VHH-72 (VHH)
VHH: QVQLQESGGGLVQAGGSLRLSCAASGRTFSEYAMGWFRQAPGKEREFVATISWSGGSTYYTDSVKGRFTISRDNAKNTVYLQMNSLKPDDTAVYYCAAAGLGTVVSEWDYDYDYWGQGTQVTVSS
- koff [1]: 3.13 s⁻¹
- kon [1]: 8.09e+07 M⁻¹ s⁻¹
- koff (SARS-CoV RBD [2]): 0.0033 s⁻¹
- kon (SARS-CoV RBD [2]): 2.86e+06 M⁻¹ s⁻¹
- IC50, pseudotyped lentivirus neutralization, Huh7.5 cells, luciferase [3]: 0.14 µg/mL
- binding result [4]: no binding
- % inhibition [5]: 97%
- IC50 [5]: 26.7 nM
- Kd [6]: 38.7 nM
- Kd (SARS-CoV RBD [7]): 1.15 nM
